Data as given in publication PMC4477864.

Legend:
[1] = target: tubulin purified from cow brain (phosphocellulose-purified), assembled as vinblastine-induced curls, (cow) (UniProt Q2T9S0); experiment: co-sedimentation
[2] = target: CENP-F N558 (amino acids 1–558) (human); experiment: sucrose gradient sedimentation + SEC
[3] = target: subtilisin-treated Taxol-stabilized MTs (S-MTs) (cow) (UniProt Q2T9S0); experiment: TIRF microscopy of MT-associated GFP fluorescence
subtilisin-treated Taxol-stabilized MTs (S-MTs) (cow), sequence (Q2T9S0 whole entry, looked up): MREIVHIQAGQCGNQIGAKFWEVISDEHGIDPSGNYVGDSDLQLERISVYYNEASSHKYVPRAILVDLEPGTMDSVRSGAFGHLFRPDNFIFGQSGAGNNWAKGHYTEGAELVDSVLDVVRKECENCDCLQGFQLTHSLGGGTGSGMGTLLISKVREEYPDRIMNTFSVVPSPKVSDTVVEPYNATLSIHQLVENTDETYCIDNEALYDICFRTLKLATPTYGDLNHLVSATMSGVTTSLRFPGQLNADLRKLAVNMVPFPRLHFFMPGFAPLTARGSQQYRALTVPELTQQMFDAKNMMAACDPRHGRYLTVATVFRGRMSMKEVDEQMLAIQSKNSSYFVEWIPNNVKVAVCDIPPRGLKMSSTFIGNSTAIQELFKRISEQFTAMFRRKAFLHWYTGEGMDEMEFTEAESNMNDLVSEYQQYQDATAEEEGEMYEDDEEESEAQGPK

Substance	Kd [1] [nM]	fold lower KD than for Tx-MTs [1] [fold]	fold stronger binding than to Tx-MTs [1] [fold]	stoichiometry N [2]	fold reduction of MT-associated GFP fluorescence against untreated MTs [3] [fold]
CENP-F N558 (amino acids 1–558) (domain or fragment)	16	> 5	< 2	2	
N436-sfGFP (CENP-F amino acids 1–436 fused to super-folding GFP) (domain or fragment)					8
